“Also recorded” adds a separate entry of the source.
T1: GM-CSF (Mus musculus, UniProt P01587)
T1 construct: purchased Peprotech
T1 sequence (P01587 18-141): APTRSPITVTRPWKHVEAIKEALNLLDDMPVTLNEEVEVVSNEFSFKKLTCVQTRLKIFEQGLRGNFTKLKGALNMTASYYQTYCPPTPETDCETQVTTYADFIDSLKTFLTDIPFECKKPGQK

B1: sGMRa: GM-CSF receptor alpha (sGMRa), a soluble factor that binds GM-CSF (protein, UniProt P15509 23-320, looked up)
extracellular domain: EKSDLRTVAPASSLNVRFDSRTMNLSWDCQENTTFSKCFLTDKKNRVVEPRLSNNECSCTFREICLHEGVTFEVHVNTSQRGFQQKLLYPNSGREGTAAQNFSCFIYNADLMNCTWARGPTAPRDVQYFLYIRNSKRRREIRCPYYIQDSGTHVGCHLDNLSGLTSRNYFLVNGTSREIGIQFFDSLLDTKKIERFNPPSNVTVRCNTTHCLVRWKQPRTYQKLSYLDFQYQLDVHRKNTQPGTENLLINVSGDLENRYNFPSSEPRAKHSVKIRAADVRILNWSSWSEAIEFGSDDG
modifications: extracellular domain
B2: GM-CSF: murine recombinant GM-CSF, Peprotech (protein, UniProt P01587 18-141, looked up)
Granulocyte-macrophage …: T1 sequence (P01587 18-141)

Tests used:
neural stem cells [1] = assay: fate determination analysis (MBP+ and β-tubulin+ cells); format: cell-based, mouse; details: primary spheres generated in EGF plus factor, differentiated 5 days, FIG. 6
Method: To determine if the presence of GM-CSF during primary neurosphere formation impacts fate determination of neural stem cells, primary neurospheres were generated in either EGF alone, EGF plus GM-CSF, or EGF plus T3 as described in Example 3. The primary spheres were then dissociated and plated on poly-L-ornithine coated coverslips in 24-well plates at a density of 200,000 cells/well in 1 ml of MHM per well, and allowed to differentiate for 5 days. At the end the differentiation period, the cells were fixed with 4% paraformaldehyde and immunostained for the mature oligodendrocyte marker MBP, the neuronal marker β-tubulin, and Hoechst. The total number of live cells, evidenced by Hoechst stain, were counted as well as the immunostained cells.

[2] = system: maturing oligodendrocytes; assay: dying maturing oligodendrocytes (GalC+, TUNEL+ cells); format: cell-based, mouse; details: 1, 3 or 5 days in differentiation media, FIG. 2
Method: The survival effects of GM-CSF on oligodendrocytes were examined with two lines of experiments. In the first line of experiments, neural stem cells were cultured as described in Example 1 in the presence or absence of GM-CSF or T3, and were fixed after 1, 3 or 5 days of culture in differentiation media. The fixed cells were immunostained for the maturing oligodendrocyte marker GalC and TUNEL, which is a marker of dying cells. The numbers of dicing, maturing oligodendrocytes (GalC+, TUNEL+cells) were then counted and their percentage in total GalC+cells are shown in FIG. 2.

neural stem cells [3] = assay: rapid differentiation protocol of neural stem cells, immunostaining for O4, GalC and MBP; format: cell-based, mouse; details: for % positive cells, GalC / % positive cells, MBP / % positive cells, O4: 20 ng/ml factor in MHM
Method: To determine the effect of GM-CSF on neural stem cell differentiation, a culture of neural stein cells was prepared from mouse embryos and subjected to a rapid differentiation protocol. Embryonic Day 14 (E14) mouse ganglionic eminence was dissected and grown in media hormone mix (MHM) plus 20 ng/ml epidermal growth factor (EGF) for one week to generate primary neurospheres. The composition of MHM was as follows: • DMEM/F12 (1:1) • glucose (0.6%) • glutamine (2 mM) • sodium bicarbonate ([…]) • HEPES (5 mM) • insulin (25 μg/ml • transferrin (100 μg/ml) • progesterone (20 nM) • putrescine (60 μM) • selenium chloride (30 nM)
Primary neurospheres were then dissociated and plated on poly-L-ornithine coated coverslips in 24-well plates at a density of 200,000 cells/ml in 1 ml of MHM per well. Cells were allowed to differentiate in the absence or presence of 20 ng/ml GM-CSF (murine recombinant GM-CSF, Peprotech) in MHM or 20 ng/ml of triiodothyronine (T3, Sigma) in MHM, or in a combination of both GM-CSF and T3. T3 is a known oligodendrocyte differentiation factor, which was used to compare GM-CSF in these experiments.
After 1, 3 or 5 days, the cells were fixed with 4% paraformaldehyde. […] After staining, the numbers of O4-positive, GalC-positive and MBP-positive cells were counted. The total number of cells were determined using Hoechst staining and live nuclei morphology under 40× magnification. This experiment was performed four times, and 10 non-overlapping fields per coverslip were counted each time. Statistical analyses of the results were performed using Anova with a Tukey-Honest post-hocs analysis.

[4] = system: EGF-responsive neural stem cells; assay: secondary neurosphere numbers (self-expansion); format: cell-based, mouse; details: FIG. 5; for number of secondary neurospheres: factor in secondary neurosphere media, primary spheres grown in EGF; for formation of secondary spheres: factor included in the media for primary neurospheres
Method: Furthermore, the effect of GM-CSF on self-expansion, proliferation of secondary neurospheres derived from primary neurospheres, was also assessed. Three media were used in the preparation of primary spheres: MHM plus EGF, MHM plus EGF plus GM-CSF and MHM plus EGF plus T3. The primary, spheres were dissociated, plated in 96-well plates at a concentration of 1000 cells/well in 200μL media per well, and allowed to form secondary neurospheres for a week. The media for secondary cultures consisted of MHM plus EGF alone, MHM plus GM-CSF or T3 alone, or MHM plus EGF supplemented with GM-CSF or T3. The number of secondary spheres in each well was then counted, calculated as percentage of control (EGF to EGF).

[5] = system: differentiating neural stem cells; assay: Survival Assay: factor added or removed at different times, MBP staining; format: cell-based, mouse; set-up: MBP + cells after 5DIV: unit not given here; details: for dependence of oligodendrocyte numbers on length of time the factor is present: summary of Table 2, MBP after 5 DIV
Method: In the second line of experiments, GM-CSF ,as given to differentiating neural stem cells at different times. Thus, neural stem cell culture was placed in differentiation media as described in Example 1, and GM-CSF was added after 24 or 48 hours, or added in the beginning but removed after 24 or 48 hours. Similarly, T3 was added or removed in the same manner in parallel experiments. The cells were fixed after 5 days in vitro and immunostained with the mature oligodendrocyte marker MBP.

[6] = system: E14 mouse ganglionic eminence cells; assay: primary neurosphere numbers; format: cell-based; details: MHM plus EGF plus factor, 20 ng/ml, 1 week, FIG. 4
Method: The effect of GM-CSF on primary neurosphere numbers was also examined by growing cells from E14 mouse ganglionic eminence in MHM plus EGF, MHM plus EGF plus GM-CSF, or MHM plus EGF plus T3, all at concentrations of 20 ng/ml. Thus, E14 mouse ganglionic eminence cells were dissociated and plated in 96well plates at a density of 10,000 cells/ml in 200 μl of media per well, and allowed to form primary neurospheres for a week. The number of primary spheres in each well as then counted and the aforementioned statistical analysis as performed.

[7] = system: E14 ganglionic eminence cells; assay: total cell number of primary neural stem cell culture; format: cell-based, mouse; details: MHM plus EGF plus factor, 1 week, versus MHM plus EGF, FIG. 3
Method: To assess the effect of GM-CSF on proliferation of neural stem cells, the number of cells generated in neurosphere cultures, prepared according to Example 1, was counted when grown for 1 week in various culture media. Thus, E14 ganglionic eminence cells were grown at a density of 200,000 cells/ml in 40 ml of media for 1 week. The media were MHM plus EGF, MHM plus EGF and GM-CSF, or MHM plus EGF and T3. Spheres were then collected, dissociated and cells were counted with a hemacytometer. The cell numbers were calculated as percentages of the control (MHM plus EGF).

GM-CSF = target: T1, GM-CSF; assay: rapid differentiation protocol with GM-CSF with or without soluble GM-CSF receptor alpha; format: cell-based; details: 100-fold excess of sGMRa, 5 days in vitro, FIG. 1
Method: A rapid differentiation protocol was performed, as described above, in the absence or presence of GM-CSF, with or without a 100-fold excess of sGMRa. After 5 days in vitro, the cells were fixed, immunostained with the mature oligodendrocyte marker MBP and counted as previously described.

[8] = McLay et al., 1997; cited from earlier work
[9] = immature oligodendrocyte marker O4, 1 DIV
[10] = mature oligodendrocyte marker MBP, 1 DIV
[11] = maturing oligodendrocyte marker GalC, 1 DIV

Row | Molecule | number of mature oligodendrocytes (MBP+ cells) (neural stem cells [1]) | number of neurons (β-tubulin+ cells) (neural stem cells [1]) | number of dying GalC+ cells (GalC+, TUNEL+ in total GalC+ cells) [2] | % positive cells, GalC (neural stem cells [3]; GalC, 3 DIV) [%] | % positive cells, GalC (neural stem cells [3]; GalC, 5 DIV) [%] | % positive cells, MBP (neural stem cells [3]; MBP, 3 DIV) [%] | % positive cells, MBP (neural stem cells [3]; MBP, 5 DIV) [%] | % positive cells, O4 (neural stem cells [3]; O4, 3 DIV) [%] | % positive cells, O4 (neural stem cells [3]; O4, 5 DIV) [%] | % positive cells, O4 (neural stem cells [3]; [9]) [%] | % positive cells, MBP (neural stem cells [3]; [10]) [%] | % positive cells, GalC (neural stem cells [3]; [11]) [%] | number of secondary neurospheres [4] | formation of secondary spheres [4] | MBP + cells after 5DIV ([5]; factor added after 24 hours) | MBP + cells after 5DIV ([5]; factor added after 48 hours) | MBP + cells after 5DIV ([5]; factor present for 5 DIV) | MBP + cells after 5DIV ([5]; factor removed after 24 hours) | MBP + cells after 5DIV ([5]; factor removed after 48 hours) | dependence of oligodendrocyte numbers on length of time the factor is present [5] | also measured
1 | N[C@@H](Cc1cc(I)c(Oc2ccc(O)c(I)c2)c(I)c1)C(=O)O [T3, triiodothyronine, reference compound] | increased | decreased | only minor survival effects, if any | 15.3 ± 1.5 | 11.1 ± 0.9 | 13.9 ± 1.1 | 17.2 ± 1.6 | 35.9 ± 1.7 | 19.9 ± 1.5 | 18.2 ± 1.2 | 1.6 ± 0.4 | 8.0 ± 0.8 | decreased | detrimental | 14.8 ± 1.5 | 12.0 ± 1.1 | 13.9 ± 1.1 | 15.5 ± 1.1 | 13.8 ± 1.1 | did not chance regardless of the length of time | ability of neural stem cells to form primary neurospheres [6]: neither GM-CSF nor T3 have significant effects; total cell number in the neural stem cell culture [7]: reduces
2 | B1 |  |  |  |  |  |  |  |  |  |  |  |  |  |  |  |  |  |  |  |  | effect of GM-CSF on MBP+ cells (GM-CSF): specifically inhibited
3 | B2 | increased | decreased | significantly reduced | 7.4 ± 0.8 | 7.9 ± 1.0 | 8.1 ± 0.9 | 12.2 ± 1.3 | 25.7 ± 1.5 | 9.6 ± 1.0 | 16.6 ± 1.2 | 1.2 ± 0.3 | 4.1 ± 0.6 | does not significantly affect | detrimental | 8.1 ± 0.9 | 3.9 ± 0.6 | 8.0 ± 0.8 | 5.4 ± 1.0 | 9.7 ± 1.0 | required for an extended period of time | percentage of oligodendrocytes produced from neural stem cells (neural stem cells [3]; every stage of oligodendrocyte development, versus control): significantly increased; also recorded: increased by several folds; crossing the blood-brain barrier [8]: capable of crossing the blood-brain barrier; ability of neural stem cells to form primary neurospheres [6]: neither GM-CSF nor T3 have significant effects; total cell number in the neural stem cell culture [7]: slightly increased
